B1: CD25 (receptor)
chain: ELCDDDPPEIPHATFKAMAYKEGTMLNCECKRGFRRIKSGSLYMLCTGNSSHSSWDNQCQCTSSATRNTTKQVTPQPEEQKERKTTEMQSPMQPVDQASLPGHCREPPPWENEATERIYHFVVGQMVYYQCVQGYRALHRGPAESVCKMTHGKTRWTQPQLICTGEMETSQFPGEEKPQASPEGRPESETSCLVTTTDFQIQTEMAATMETSIFTTEYQHHHHHH
The term Kd denotes the concentration at which binding is half-saturated. Read a high Kd as lower affinity. On to B1, for which the Kd in the experiment with V69A came out at 0.023 nM; with E68Q, 0.022 nM; with L72I, 0.024 nM; in the experiment with M104D it was 0.028 nM; with I114W, 0.038 nM; in the experiment with N71Y, 0.018 nM.
